Results: the supplement of paper PMC9170038

Test system: MS2 coat protein
Experiment: apparent KD of MS2 coat protein; designed switch direction (-1 OFF switch, 1 ON switch): 1; higher = weaker reporter binding
Procedure, shortened: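 Designed RNA switches with common flanks were made on Illumina chips by stalled E. coli RNA polymerase. Titration with SNAP-549-labelled MS2 coat protein doubled from 0.7 or 1.5 nM up to 3 µM. Apparent KD is each design's median over clusters after curve-fitting normalised fluorescence.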

[1] = input ligand: microRNA oligo, concentration not stated
[2] = Eterna round: R95, input ligand: microRNA oligo, concentration not stated
[3] = Eterna round: R95, input ligand: FMN 200 uM
[4] = Eterna round: R95, input ligand: none

| Sequence | apparent KD of MS2 coat protein (input ligand: FMN 200 uM) | apparent KD of MS2 coat protein [1] | apparent KD of MS2 coat protein (input ligand: none) | apparent KD of MS2 coat protein [2] | apparent KD of MS2 coat protein [3] | apparent KD of MS2 coat protein [4] |
| --- | --- | --- | --- | --- | --- | --- |
| UGGUACAUGGGAGGAUAUCAUGUAGAAACAUGAGGAUCACCCAUGUAGUUGGCAGCUUUGCUGAAUGAGAAGGCCCAUGUACCU [JL SSNG1 3.59] (Eterna round: R96, puzzle: Same State NG 2) | 20.6 nM | 19.5 nM | 26.7 nM |  |  |  |
| UGGUACAUGGGAGGAUAUCAUGUAGACACAUGAGGAUCACCCAUGUCGAUGGAGACAUCGGAGAUUGAGAAGGCCCAUGUACCU [JL SSNG1 3.55] (Eterna round: R96, puzzle: Same State NG 2) | 18.6 nM | 291 nM | 647 nM |  |  |  |
| UGGUACAUGGGAGGAUAUCCUAUGGUGACAUGAGGAUCACCCAUGUAAUUGGAGCCGAAAGGCAUGGAGAAGGCCCAUGUACCU [JL SSNG1 3.78] (Eterna round: R96, puzzle: Same State NG 2) | 40.2 nM | 31.4 nM | 44.1 nM |  |  |  |
| UGGUACAUGGGAGGAUAUCUCAUGGUGACAUGAGGAUCACCCAUGUAGUUGGAGCCGAAAGGCAGAGAGAAGGCCCAUGUACCU [JL SSNG1 3.77] (Eterna round: R96, puzzle: Same State NG 2) | 69.2 nM | 65.7 nM | 96.3 nM |  |  |  |
| UGGUACAUGGGAGGAUAUCUCGUGGAGACAUGAGGAUCACCCAUGUAGAUGGCCGGUAACCGGUGAGAGAAGGCCCAUGUACCU [JL SSNG1 3.69] (Eterna round: R96, puzzle: Same State NG 2) | 71.6 nM | 42.2 nM | 141 nM |  |  |  |
| UGUACCUUCACAGGAUAUCAUGCGAAAAUUGCGUGAGAAGGGUGAAUACUGUCUUACUAAGAGCACAUGAGGAUCACCCAUGUA [SameState NG1 #58] (Eterna round: R96, puzzle: Same State NG 1) | 269 nM | 198 nM | 296 nM |  |  |  |
| UGUAUACAUGAGGAUCACCCAUGUCAACGUAGUCGAGGAUAUGGGCAGCCGUGAGGCGUACUAGAAGGCGAAGAGG [JL-ss1-3.06 ViennaUCT mod] (puzzle: Same State 1) |  |  |  | 116 nM |  |  |
| UGUUAACAUGAGGAUCACCCAUGUCAAAUGAAUGCAGGAUAUGGGAAGUAAUAAGAUAAACCAGAAGGGCAAGUUG [Altered State 1-17 - Jieux - Same State 1] (puzzle: Same State 1) |  |  |  | 162 nM | 49.4 nM | 311 nM |
| UGUUAUUAGACAGGAUAUUGAAUGUUAAGUAUUAACAUGAGGAUCACCCAUGUAUUUGAUUGGUACAAGAAGGGUCAUGUUCCU [JR_SSNG2_Sub016] (Eterna round: R96, puzzle: Same State NG 2) |  | 399 nM |  |  |  |  |
| UGUUCGUAGGAAGGAUAUCGAAAUAAAGGCGUCCACAUGAGGAUCACCCAUGUCGGCGGACCAAACGAGAAGGUCUACCCGGAC [Eternabot solution 12] (Eterna round: R96, puzzle: Same State NG 2) | 9.42 nM | 8.37 nM | 11.6 nM |  |  |  |
| UGUUGUAUUACAGGAUAUCUAGUAUAUUUAUUUAGAGAAGGGUAUUCACAUGAGGAUCACCCAUGUAUAUACGAGGAAGUUGUG [JMF's solution 37] (Eterna round: R96, puzzle: Same State NG 1) |  | 29.6 nM |  |  |  |  |
| UGUUGUAUUACAGGAUAUCUAGUAUUUGUAUUUAGAGAAGGGUAUUCACAUGAGGAUCACCCAUGUAUAUACGAGGAAGUUGUG [JMF's solution 42] (Eterna round: R96, puzzle: Same State NG 1) | 53.7 nM | 35.4 nM | 48.3 nM |  |  |  |
| UGUUGUAUUACAGGAUAUCUAUGUUUUUUAUUUAGAGAAGGGUAUUCACAUGAGGAUCACCCAUGUAUAUACGAGGAAGUUGUG [JMF's solution 57] (Eterna round: R96, puzzle: Same State NG 1) |  | 40.4 nM |  |  |  |  |
| UGUUGUAUUACAGGAUAUCUAUUAGCUUUAUUUAGAGAAGGGUAUUCACAUGAGGAUCACCCAUGUAUAUACGAGGAAGUUGUG [JMF's solution 88] (Eterna round: R96, puzzle: Same State NG 1) |  | 33.6 nM |  |  |  |  |
| UGUUGUAUUACAGGAUAUCUAUUAUUUUUAUGUAGAGAAGGGUAUUCACAUGAGGAUCACCCAUGUAUAUACGAGGAAGUUGUG [JMF's solution 29] (Eterna round: R96, puzzle: Same State NG 1) |  | 32.9 nM |  |  |  |  |
| UGUUGUUAAUUAGGAUAUGGUCACAUGAGGAUCACCCAUGUAAUGUCGAUGCUAUGUGGACACGAUCAGAAGGAAUGGCUAACA [SameState NG2 #93] (Eterna round: R96, puzzle: Same State NG 2) | 21.3 nM | 69.7 nM | 102 nM |  |  |  |
| UUAAAACAUGAGGAUCACCCAUGUAAUAAUAUGGGAGGAUAUCAGAAUGUAUGUAUGUAAUGAGAAGGCCUAAAUU [Mat - Same State 1 - Mod of Eli - D76] (puzzle: Same State 1) |  |  |  | 519 nM | 63.6 nM | 1280 nM |
| UUAAAACAUGAGGAUCACCCAUGUAAUAAUAUGGGAGGAUAUCAGAUUUAAUUUAAUUUAUGAGAAGGCCUAAAUU [Mat - Same State 1 - Mod of Eli - D61] (puzzle: Same State 1) |  |  |  | 163 nM | 58.7 nM | 512 nM |
| UUAACAUGAGGAUCACCCAUGUAUAGGGAGUUAACAAUUGGACAGGAUAUUGAAGAUGUAGAUAGCAAGAAGGGUCGGUAGUCU [JR_SSNG3_Sub001] (Eterna round: R96, puzzle: Same State NG 3) |  | 30 nM |  |  |  |  |
| UUAACAUGAGGAUCACCCAUGUAUGCGUAGCUUGCAUUUUGACAGGAUAUUGAAUAUCUAUAUAGCAAGAAGGGUCGUUAGUCU [JR_SSNG3_Sub008] (Eterna round: R96, puzzle: Same State NG 3) | 91.8 nM | 53.3 nM | 94.9 nM |  |  |  |
| UUAAGCAACGGGCAGGAUAUGUAUUAAUAUACAUGAGGAUCACCCAUGUGCAGGUGUAACACCUGACAGAAGGGCCAAUCGCUGC [Soteed - 10] (puzzle: Same State 2) |  |  |  | 509 nM | 82.1 nM | 515 nM |
| UUAAGCCACGGGCAGGAUAUGUAUUAAAAUACAUGAGGAUCACCCAUGUGCAGGUGUAACACCUGGCAGAAGGGCCAAUCGCGGC [Soondi - 4] (puzzle: Same State 2) |  |  |  | 149 nM | 29.2 nM | 171 nM |
| UUAAUAAUGAUAGGAUAUACAUGAGGAAUUCUCGUAGAAGGAUCAUGACAUGAGGAUCACCCAUGUAACGCUCCGUAGAGCGUA [Mat - Same State NG 1 - JL mod - D36] (Eterna round: R96, puzzle: Same State NG 1) | 413 nM | 321 nM | 447 nM |  |  |  |
| UUACUCAUGUAAGGAUAUGCAGCCGAAACGGCUGCAGAAGGUACUAUAAUACAUGAGGAUCACCCAUGUCUCUAUUAUUUAGUU [Mat - Same State NG 1 - JL mod - D94] (Eterna round: R96, puzzle: Same State NG 1) | 73.4 nM | 38.2 nM | 58 nM |  |  |  |
| UUACUCAUGUAAGGAUAUGCAGCCGUUUCGGCUGCAGAAGGUACUAUAAUACAUGAGGAUCACCCAUGUCUUUUUAAUUUUUAC [JL SSNG1 1.28] (Eterna round: R96, puzzle: Same State NG 1) | 87.5 nM | 24.4 nM | 54.2 nM |  |  |  |
| UUAUUAAUUACAUGAGGAUCACCCAUGUUAAAUAGUCAGAGACAGGAUAUAGAAGUCUCGUUUUACUAGAAGGGUCAUUAUAUG [JR_SSNG3_Sub013] (Eterna round: R96, puzzle: Same State NG 3) | 40.7 nM | 27.2 nM | 35.8 nM |  |  |  |
| UUAUUAAUUACAUGAGGAUCACCCAUGUUUUUUUGUCAGAGACAGGAUAUAGAAGUCUCGUUUUACUAGAAGGGUCAUUAUAUG [JR_SSNG3_Sub014] (Eterna round: R96, puzzle: Same State NG 3) | 25.6 nM | 19 nM | 29.7 nM |  |  |  |
| UUCAAUGGGAUAGGAUAUCCUGCGGCGAGGCGUGGAGAAGGGUCAAGUACAUGAGGAUCACCCAUGUUUCGGAAAUAUUCCGAG [Eternabot solution 29] (Eterna round: R96, puzzle: Same State NG 1) | 121 nM | 41.5 nM | 125 nM |  |  |  |
